Experimental findings from article PMC8980801 (2022) are described below.

The target of experiment [1] is FLAG-Fzd4-3C-sGFP1–10-PDZ (mouse | not stated) (UniProt Q61088). The experiment is described as follows: SEC; FLAG-Fzd4-sGFP1–10 and FLAG-Fzd4-sGFP11 coexpressed in Sf9, solubilised in DDM, M1 anti-FLAG eluate on Superose 6 to separate dimers from monomers; total protein compared with GFP fluorescence. Background: Size exclusion chromatography separates by hydrodynamic size, large species first.

Experiment [2] addresses T1, Fzd4 homodimer in biotinylated nanodiscs (mouse, UniProt Q61088 42-537).
T1 chain: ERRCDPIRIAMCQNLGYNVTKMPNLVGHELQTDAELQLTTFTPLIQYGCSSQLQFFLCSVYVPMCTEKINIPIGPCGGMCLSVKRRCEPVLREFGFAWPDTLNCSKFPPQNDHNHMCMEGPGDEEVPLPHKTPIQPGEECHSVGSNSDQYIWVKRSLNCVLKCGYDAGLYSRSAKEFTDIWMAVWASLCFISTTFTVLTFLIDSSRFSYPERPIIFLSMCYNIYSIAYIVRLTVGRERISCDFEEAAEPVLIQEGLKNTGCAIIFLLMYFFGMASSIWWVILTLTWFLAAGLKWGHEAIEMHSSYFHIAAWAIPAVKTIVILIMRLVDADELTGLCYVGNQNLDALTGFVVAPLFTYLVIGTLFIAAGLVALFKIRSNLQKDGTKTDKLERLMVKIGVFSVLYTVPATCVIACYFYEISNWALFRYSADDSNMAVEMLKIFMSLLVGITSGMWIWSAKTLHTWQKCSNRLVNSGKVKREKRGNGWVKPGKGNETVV
The experiment is described as follows: BLI. On the technique in general: In BLI a coated tip is dipped into the sample, and binding shifts an interference pattern.

Experiment [3] addresses T1, Fzd4 homodimer in biotinylated nanodiscs. Put plainly: BLI; biotinylated nanodiscs on streptavidin biosensors, 0-10 nM MBP–Norrin, 3 h association, 25 °C, 20 mM Hepes pH 7.4, 150 mM NaCl, 1 mM EDTA, 1 mg/ml BSA; steady state.
Experiment [4] has as its target T2, Fzd4–LRP6 heterodimer in biotinylated nanodiscs, prebound to Norrin (mouse | human | , UniProt Q61088 42-537; O75581 20-1439; Q00604 33-133). The experiment is described as follows: BLI.
Experiment [5] addresses T2, Fzd4–LRP6 heterodimer in biotinylated …. Put plainly: BLI. The source holds these as a separate data set.
For experiment [6], the target named is T3, Fzd4–LRP6 heterodimer in biotinylated nanodiscs (mouse | human, UniProt Q61088 42-537; O75581 20-1439).
T3 chain 1: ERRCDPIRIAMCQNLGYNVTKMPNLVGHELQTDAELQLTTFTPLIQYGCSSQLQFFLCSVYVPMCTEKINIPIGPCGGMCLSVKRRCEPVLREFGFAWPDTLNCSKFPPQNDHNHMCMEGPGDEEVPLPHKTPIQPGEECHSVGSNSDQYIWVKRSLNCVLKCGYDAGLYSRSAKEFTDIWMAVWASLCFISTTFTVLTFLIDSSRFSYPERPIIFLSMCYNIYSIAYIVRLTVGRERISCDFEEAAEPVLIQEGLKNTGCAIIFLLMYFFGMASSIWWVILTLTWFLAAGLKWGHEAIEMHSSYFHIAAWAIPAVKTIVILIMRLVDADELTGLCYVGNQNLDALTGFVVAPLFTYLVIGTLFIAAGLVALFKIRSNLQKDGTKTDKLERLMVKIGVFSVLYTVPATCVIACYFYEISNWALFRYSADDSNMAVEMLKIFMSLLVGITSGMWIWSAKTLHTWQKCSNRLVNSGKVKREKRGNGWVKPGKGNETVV
T3 chain 2: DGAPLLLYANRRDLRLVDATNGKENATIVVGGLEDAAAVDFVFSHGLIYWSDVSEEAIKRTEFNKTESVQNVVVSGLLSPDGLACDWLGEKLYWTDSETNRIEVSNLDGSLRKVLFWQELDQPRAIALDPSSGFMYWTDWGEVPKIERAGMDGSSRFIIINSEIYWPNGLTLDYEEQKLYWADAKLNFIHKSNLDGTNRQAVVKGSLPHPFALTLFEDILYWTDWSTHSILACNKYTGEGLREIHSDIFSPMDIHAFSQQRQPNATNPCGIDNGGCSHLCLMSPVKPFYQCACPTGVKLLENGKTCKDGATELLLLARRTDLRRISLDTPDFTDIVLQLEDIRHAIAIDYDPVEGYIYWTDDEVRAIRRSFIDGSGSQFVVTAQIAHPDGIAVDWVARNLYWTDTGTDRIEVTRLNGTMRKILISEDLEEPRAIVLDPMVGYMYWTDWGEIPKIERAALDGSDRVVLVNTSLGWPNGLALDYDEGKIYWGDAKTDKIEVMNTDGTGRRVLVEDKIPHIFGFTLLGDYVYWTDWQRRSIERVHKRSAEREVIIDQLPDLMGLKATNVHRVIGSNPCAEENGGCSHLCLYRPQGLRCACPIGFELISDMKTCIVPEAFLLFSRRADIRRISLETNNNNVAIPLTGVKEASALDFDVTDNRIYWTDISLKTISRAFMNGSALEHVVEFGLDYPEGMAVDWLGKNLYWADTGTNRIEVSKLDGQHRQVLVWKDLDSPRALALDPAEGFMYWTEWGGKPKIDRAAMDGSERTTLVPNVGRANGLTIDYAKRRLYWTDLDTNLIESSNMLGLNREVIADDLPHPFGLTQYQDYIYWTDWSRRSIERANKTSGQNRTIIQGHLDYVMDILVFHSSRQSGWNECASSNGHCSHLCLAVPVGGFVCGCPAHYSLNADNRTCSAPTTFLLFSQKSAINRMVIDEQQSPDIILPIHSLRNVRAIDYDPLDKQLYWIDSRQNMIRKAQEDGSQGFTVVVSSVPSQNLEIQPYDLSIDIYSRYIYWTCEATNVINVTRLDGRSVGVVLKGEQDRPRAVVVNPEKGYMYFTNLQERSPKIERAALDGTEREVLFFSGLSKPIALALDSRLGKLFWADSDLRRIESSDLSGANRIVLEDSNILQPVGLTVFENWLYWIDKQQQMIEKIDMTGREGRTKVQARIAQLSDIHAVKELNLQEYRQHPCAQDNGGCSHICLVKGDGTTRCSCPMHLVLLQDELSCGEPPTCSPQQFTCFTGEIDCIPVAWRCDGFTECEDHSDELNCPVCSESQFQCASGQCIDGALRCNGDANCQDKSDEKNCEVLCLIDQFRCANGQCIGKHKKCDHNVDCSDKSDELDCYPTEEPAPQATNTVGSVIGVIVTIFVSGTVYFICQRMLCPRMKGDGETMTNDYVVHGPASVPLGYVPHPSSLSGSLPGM
Put plainly: BLI; kinetic, without Norrin.

The target in experiment [7] is T3, Fzd4–LRP6 heterodimer in biotinylated …. The experiment is described as follows: BLI; without Norrin.
Experiment [8] addresses Fzd4–LRP6 heterodimer in biotinylated nanodiscs (mouse | human) (UniProt Q61088). The experiment is described as follows: BLI; nanodiscs with 5% PIP2 on SMAP biosensors, 0.01 to 32 μM DEP, empty nanodiscs subtracted, 25 °C, 20 mM Hepes pH 7.4, 150 mM NaCl, 1 mM EDTA, 1 mg/ml BSA; steady state.
The target in experiment [9] is Fzd4–LRP6 heterodimer in biotinylated nanodiscs, prebound to Norrin (mouse | human | not stated) (UniProt Q61088). The experiment is described as above.
Experiment [10] has as its target T3, Fzd4–LRP6 heterodimer in biotinylated …. The experiment is described as follows: BLI.
For experiment [11], the target named is T4, LRP6 monomer in biotinylated nanodiscs (human, UniProt O75581 20-1439).
T4 chain: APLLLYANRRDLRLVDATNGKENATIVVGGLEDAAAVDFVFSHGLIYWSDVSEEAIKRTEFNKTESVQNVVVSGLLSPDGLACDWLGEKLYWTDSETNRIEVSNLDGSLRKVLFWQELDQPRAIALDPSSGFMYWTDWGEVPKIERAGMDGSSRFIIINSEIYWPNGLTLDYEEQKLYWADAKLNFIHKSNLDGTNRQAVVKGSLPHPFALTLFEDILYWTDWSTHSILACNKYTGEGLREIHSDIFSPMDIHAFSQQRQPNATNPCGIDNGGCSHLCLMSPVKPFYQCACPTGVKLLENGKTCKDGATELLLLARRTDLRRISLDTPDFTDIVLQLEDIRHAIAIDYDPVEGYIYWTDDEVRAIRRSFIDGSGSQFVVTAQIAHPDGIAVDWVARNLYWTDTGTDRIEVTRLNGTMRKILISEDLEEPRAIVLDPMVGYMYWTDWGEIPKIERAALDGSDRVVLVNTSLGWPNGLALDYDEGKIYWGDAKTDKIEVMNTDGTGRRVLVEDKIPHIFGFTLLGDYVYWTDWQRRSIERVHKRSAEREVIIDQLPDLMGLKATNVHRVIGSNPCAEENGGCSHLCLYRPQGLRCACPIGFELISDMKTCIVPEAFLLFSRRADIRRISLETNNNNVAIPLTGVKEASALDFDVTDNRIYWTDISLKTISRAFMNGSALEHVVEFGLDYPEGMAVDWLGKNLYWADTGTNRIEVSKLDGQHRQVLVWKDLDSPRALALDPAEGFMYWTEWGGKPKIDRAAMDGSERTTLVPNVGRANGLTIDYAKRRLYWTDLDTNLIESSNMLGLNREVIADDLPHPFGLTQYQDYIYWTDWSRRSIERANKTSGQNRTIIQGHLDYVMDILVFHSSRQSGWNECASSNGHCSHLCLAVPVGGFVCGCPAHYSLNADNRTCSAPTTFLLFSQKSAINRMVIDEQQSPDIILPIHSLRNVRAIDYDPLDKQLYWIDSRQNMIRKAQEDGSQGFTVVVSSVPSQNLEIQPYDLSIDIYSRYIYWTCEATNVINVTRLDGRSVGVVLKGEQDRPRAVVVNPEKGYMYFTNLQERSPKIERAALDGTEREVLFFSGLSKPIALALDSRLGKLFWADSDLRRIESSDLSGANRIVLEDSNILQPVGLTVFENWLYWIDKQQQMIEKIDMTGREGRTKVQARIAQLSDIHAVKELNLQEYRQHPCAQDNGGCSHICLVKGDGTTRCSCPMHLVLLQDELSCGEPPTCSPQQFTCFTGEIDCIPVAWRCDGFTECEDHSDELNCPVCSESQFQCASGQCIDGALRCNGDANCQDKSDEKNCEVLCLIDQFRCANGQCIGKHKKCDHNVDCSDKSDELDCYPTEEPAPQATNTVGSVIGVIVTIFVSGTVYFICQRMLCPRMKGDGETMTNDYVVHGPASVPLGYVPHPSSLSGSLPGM
The experiment is described as follows: BLI.

Experiment [12] has as its target Fzd4–LRP6 heterodimer in biotinylated nanodiscs (mouse | human) (UniProt Q61088). The experiment is described as follows: BLI; biotinylated nanodiscs on streptavidin biosensors, 0-100 nM DKK1, empty discs subtracted, 25 °C, 20 mM Hepes pH 7.4, 150 mM NaCl, 1 mM EDTA, 1 mg/ml BSA; steady state.
For experiment [13], the target named is T4, LRP6 monomer in biotinylated nanodiscs. The experiment is described as follows: BLI; kinetic.

As a reminder, the koff is a measure of how fast the partners let go of each other. In general, Kd refers to the free concentration of one partner at which half of the binding sites on the other are occupied at equilibrium, for simple one-to-one binding.

As to “FLAG-Fzd4-3C-sGFP11-PDZ (Sf9) (from UniProt Q61088 42-537) (receptor)”, the percent of the expressed protein GFP dimerized in experiment [1] worked out at 50%.

B1: MBP–Norrin (ligand)
chain: DSDPRRCMRHHYVDSISHPLYKCSSKMVLLARCEGHCSQASRSEPLVSFSTVLKQPFRSSCHCCRPQTSKLKALRLRCSGGMRLTATYRYILSCHCEECNS
In the case of B1, the koff in experiment [2] was 0.00034 s⁻¹. Also, in experiment [3], the Kd came to 0.46 nM.

B2: Dishevelled-2 (Dvl2) DEP domain (domain or fragment)
chain: GLSVHMDMASVTKAMAAPESGLEVRDRMWLKITIPNAFLGSDVVDWLYHHVEGFPERREARKYASGLLKAGLIRHTVNKITFSEQCYYVFGDLSG
Take B2: the koff in experiment [4] was 0.013 s⁻¹; in [7], 0.0095 s⁻¹. The Kd in experiment [5] was determined as 420 nM; in experiment [6], 260 nM; in experiment [8], 220 nM; in [9] it was 198 nM.

B3: Dikkopf1 (DKK1) (ligand)
chain: TLNSVLNSNAIKNLPPPLGGAAGHPGSAVSAAPGILYPGGNKYQTIDNYQPYPCAEDEECGTDEYCASPTRGGDAGVQICLACRKRRKRCMRHAMCCPGNYCKNGICVSSDQNHFRGEIEETITESFGNDHSTLDGYSRRTTLSSKMYHTKGQEGSVCLRSSDCASGLCCARHFWSKICKPVLKEGQVCTKHRRKGSHGLEIFQRCYCGEGLSCRIQKDHHQASNSSRLHTCQRH
On to B3, for which the koff stood at 0.0057 s⁻¹ in [10] and 0.012 s⁻¹ in experiment [11]. The Kd in experiment [12] turned out to be 5.6 nM; in experiment [13] it was 16.7 nM.
